In series [1] the target is T1, HIV-1 reverse transcriptase (HIV-1, UniProt P04585;P04585 P04585:588-1147,P04585:588-1027). Put plainly: inhibition; Ki' for RNA-dependent DNA polymerase activity. Conditions: tags: overexpressed in E. coli, purified per Davies et al. 1991. From the text: (§1) A substrate for the RNA-dependent DNA polymerase activity of HIV-1 RT was assembled by annealing an 18 nucleotide, 5' end-labeled DNA primer to a 30 nucleotide RNA template with a complementary 3' end (see FIG. 10), and purifying the duplex on a 12% non-denaturing acrylamide gel. The primer sequence matched the 3' terminal 18 nucleotides of tRNA^{Lys,3}, responsible for priming minus-strand DNA synthesis of the HIV-1 genome, and the template sequence paralleled the HIV-1 genomic primer binding site and downstream 12 nucleotides. A dilution series of inhibitory ssDNA ligand (to give a final concentration of 0, 1, 3, 9, 27, or 81 nM) was denatured in HRT Buffer at 70° C. for 5 minutes and allowed to renature slowly at 20° C. The primer:template substrate was added to a final concentration of 40 nM, along with dNTP's at 400 µM. The 10 µl reaction was initiated with the addition of either HIV-1, AMV, or MMLV-RT (to give a final concentration of 10 nM), allowed to proceed for 5 minutes at 37° C., and terminated with one volume of formamide. Extension products were separated on an 8% denaturing acrylamide gel and quantitated with an Ambis radioanalytic imager.
The ability of each of the 8 isolates to inhibit the RNA-dependent DNA polymerase activity of HIV-1 RT was assayed by measuring the decrease in extension product formation from a primer:template substrate as a function of inhibitor concentration (FIGS. 10A–10E). The substrate for the inhibition assay was a DNA:RNA heteroduplex consisting of an 18 nucleotide end-labeled DNA primer identical in sequence to the 3' end of tRNA^{Lys,3} annealed to a 30 nucleotide RNA template whose sequence matches the genomic primer binding site and the first twelve transcribed nucleotides. Extension reactions were performed as described in Example 1 in the presence of 0, 81, 27, 9, 3, and 1 nM inhibitor as indicated in FIG. 10.

Series [2] concerns the target T1, HIV-1 reverse transcriptase. Briefly: filter; HRT buffer, 37 C. Conditions: tags: overexpressed in E. coli, purified per Davies et al. 1991; pseudoknot.
Series [3] has the same target. Put plainly: competition; Kc for displacement of RT1. The note with it: tags: overexpressed in E. coli, purified per Davies et al. 1991; pseudoknot. As for the experimental part:
To test this, we measured the ability of the ssDNA ligand RT1 (SEQ ID NO:71) to maintain its specific binding contacts with HIV-1 RT in the presence of high concentrations of RNA pseudoknot (see FIG. 8). […] The percent of RT1 bound in the presence of competitor relative the percent bound in the absence of competitor is plotted as a function of RNA pk concentration. […] As shown graphically in FIG. 14, when a stoichiometric equivalent of RNA pk was added, approximately one half of the complexed RT1 was displaced, and nearly all was displaced when a large excess of RNA was added. […] However, with this assay we are unable to distinguish between an interaction of both ligands at a common site or an interaction of each at different sites, with a conformational change upon binding the first that prevents subsequent binding of the second.

Series [4] shares this target. Briefly: filter; HRT buffer, 6 mM MgCl2, 37 C. Conditions: tags: overexpressed in E. coli, purified per Davies et al. 1991, label: 5'-32P.
The target is the same in series [5]. Briefly: inhibition; Ki' for RNA-dependent DNA polymerase activity; 37 C, 40 nM primer:template. Conditions: tags: overexpressed in E. coli, purified per Davies et al. 1991; label: 5'-32P; long interrupted helix with AA/CG internal loop.
From the text: as §1, with “imager. […]” for “imager.”

Series [6] shares this target. Put plainly: filter; nearly as high as full-length RT1. Conditions: tags: overexpressed in E. coli, purified per Davies et al. 1991.

On to GGUCCGAAGUGCAACGGGAAAAUGCACU (ssRNA) [RNA pseudoknot (RNA pk)], for which the Ki stood at 4.7 nM in series [1] (pseudoknot) and 3 nM in series [3]. In addition, in series [2], binding was put at a Kd of 5 nM.

B1: RT4 (ssDNA)
DNA: ATCCGCCTGATTAGCGATACTTTAGCAAAGTTGAAGCCGGACTAACAAGCTCTACGACTTGAGCAAAATCACCTGCAGGGG
Turning to B1, the affinity in series [1] (label: 5'-32P, internal loop AA opposite AG), expressed as Ki, was 4.1 nM. In other words, the single-digit nanomolar range.

B2: RT6 (ssDNA)
DNA: ATCCGCCTGATTAGCGATACTCAGGCGTTAGGGAAGGGCGTCGAAAGCAGGGTGGGACTTGAGCAAAATCACCTGCAGGGG
B2: in series [4], the affinity, expressed as Kd, was 5 nM. The same molecule yielded a Ki in series [1] (label: 5'-32P) of 30 nM.

B3: RT26 (ssDNA)
DNA: ATCCGCCTGATTAGCGATACTTACGTGAGCGTGCTGTCCCCTAAAGGTGATACGTCACTTGAGCAAAATCACCTGCAGGGG
B3 came in with a Kd in series [4] (intramolecular primer:template junction, AA/CG internal loop) of approximately 1 nM. Also, the Ki in series [1] (label: 5'-32P, intramolecular primer:template junction, AA/CG internal loop) turned out to be 2.7 nM.

B4: RT1 (ssDNA)
DNA: ATCCGCCTGATTAGCGATACTCAGAAGGATAAACTGTCCAGAACTTGGAATATATCACTTGAGCAAAATCACCTGCAGGGG
B4 yielded a Kd in series [4] (long interrupted helix with AA/CG internal loop) of approximately 1 nM. The molecule also came in with an inhibition constant Ki in series [5] of 0.3 nM.

B5: RT36 (ssDNA)
DNA: ATCCGCCTGATTAGCGATACTAAGCTCTTAGTTGATGCGCGGTCAAAATTTAAGCTACTTGAGCAAAATCACCTGCAGGGG
B5 showed a Ki in series [1] (label: 5'-32P, internal loop AA opposite A) of 6.5 nM.

B6: RT10 (ssDNA)
DNA: ATCCGCCTGATTAGCGATACTTATTTGCCCTTGCAGGCCGCAGGAGTGCTAGCAGTACTTGAGCAAAATCACCTGCAGGGG
As for B6, the Ki in series [1] (label: 5'-32P, intramolecular primer:template junction (3' AGGGG paired with CCCCT)) is 62 nM.

B7: RT8 (ssDNA)
DNA: ATCCGCCTGATTAGCGATACTAGCCAGTCAAGTTAATGGGTGCCATGCAGAAGCAACTTGAGCAAAATCACCTGCAGGGG
In the case of B7, in series [1] (label: 5'-32P, internal loop CAA opposite TAG), the affinity corresponds to a Ki of 13 nM.

Take ATCCGCCTGAATAGCGATACTCAGAAGGATAAACTGTCCAGAACTTGGA (ssDNA) [RT1t49]: in series [6], binding was put at a Kd of 4 nM.

The Ki is a measure of affinity in units of concentration, obtained from inhibition or displacement. High values mean lower affinity, low ones higher affinity. As usually defined, the Kd is the concentration at which binding is half-saturated. Low values mean tighter binding, high ones weaker binding.
